Assay results published in patent publication US20170202936A1 (VAXON BIOTECH, published 2017).

B1: Her2/neu246A1 (peptide)
peptide: APKHSDCLA
notes: Synthetic optimized peptide; Her2/neu246 with A at position 1
B2: Hsp70115A1R3 (peptide)
peptide: APREISSMVL
notes: Hsp70 115 with A at position 1 and R at position 3
B3: Her2/neu1069L9 (peptide)
peptide: APRSPLAPL
notes: Synthetic optimized peptide; Her2/neu1069 with L at the C-terminal position

target: T1, HLA-B*0702 (human); test: assay not given
T1 construct: MHC class I molecule on T2-B7 cells; also called HLA-B7

| Binder | binding result |
| --- | --- |
| B1 | binds |

target: T1, HLA-B*0702; test: T2-B7 cells, HLA-B*0702 surface expression (ME-1 mAb); ratio to reference peptide CMV265-274 (SEQ ID NO: 9)
Source text: (§1) The protocol used has been described previously (Rohrlich et al., 2003).

| Binder | RA (relative affinity) [ratio] |
| --- | --- |
| YPEEISSMVL (also called Hsp115) [Hsp70 115] | > 10 |
| YPVTNAVITV (also called Hsp137) [Hsp70 137 (10)] | > 10 |
| APRRLVQLL (TERT444 with A at position 1) [TERT444A1] | 1.4 |
| APRCRAVRSL [TERT4] | 0.74 |

target: T1, HLA-B*0702; test: RA grade (+ = 1 < RA < 10), T2-B7 cells, ME-1 mAb staining
Source text: as §1

| Binder | relative affinity (RA): ratio of peptide concentration to reference peptide concentration inducing 20% of HLA-B*0702 expression [ratio] |
| --- | --- |
| APREYVNAL [APREYVNAL (SEQ ID NO: 47)] | 1 to 10 |
| APRRRLGCEL [APRRRLGCEL (SEQ ID NO: 51)] | 1 to 10 |
| APRALVETL [APRALVETL (SEQ ID NO: 49)] | 1 to 10 |
| B2 | 1 to 10 |
| APRRLVQLL (TERT444 with A at position 1) [TERT444A1] | 1 to 10 |
| APRTKAEML [APRTKAEML (SEQ ID NO: 57)] | 1 to 10 |
| APRPWTPCL [APRPWTPCL (SEQ ID NO: 52)] | 1 to 10 |
| APRCRAVRSL [TERT4] | 1 to 10 |

target: T1, HLA-B*0702; test: RA grade (++ = RA < 1), T2-B7 cells, ME-1 mAb staining
Source text: as §1

| Binder | relative affinity (RA): ratio of peptide concentration to reference peptide concentration inducing 20% of HLA-B*0702 expression [ratio] |
| --- | --- |
| APRMHCAVDL [APRMHCAVDL (SEQ ID NO: 45)] | < 1 |
| B3 | < 1 |
| APRVSIRLPL [APRVSIRLPL (SEQ ID NO: 46)] | < 1 |
| APRSLGLEL [Hsp70397R3L9] | < 1 |
